# Measured values from FireProtDB (doi:10.1093/jb/mvy087).
# Conditions: Equus caballus; pH 7; Thermal; CD; CAPS buffer; transition: 2; reversible: yes
# Cytochrome c wild type, P00004, sequence (P00004 whole entry): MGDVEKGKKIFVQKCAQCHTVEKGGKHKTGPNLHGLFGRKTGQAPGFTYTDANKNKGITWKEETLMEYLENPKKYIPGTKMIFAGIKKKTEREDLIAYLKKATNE
substance,measurement,value
"Cytochrome c wild type, P00004",Tm,83.4 °C
same,heat capacity change of unfolding,1.3 kcal/mol/K
same,unfolding enthalpy (calorimetric),76.7 kcal/mol
